Source: patent US20020150566

Target: HA-Ras (wild-type) (UniProt P01112)
Chain of UniProt P01112 (P01112 whole entry, looked up): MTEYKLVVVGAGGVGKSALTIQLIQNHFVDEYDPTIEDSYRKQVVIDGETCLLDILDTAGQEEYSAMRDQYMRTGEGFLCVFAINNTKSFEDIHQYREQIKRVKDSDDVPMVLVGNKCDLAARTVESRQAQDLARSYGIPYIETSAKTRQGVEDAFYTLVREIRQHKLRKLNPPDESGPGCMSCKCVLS

With Flag-SOS the “amount of GTP-bound HA-Ras (32-PO4 labeling, a-HA immunoprecipitation, TLC)” value was “expression of Flag-SOS significantly increased the amount of GTP-bound HA-Ras”.
